Laboratory results taken from the RNAGym collection of RNA variant scans (doi:10.1073/pnas.2313332121).

B1: TPR t1 (parent)
chain: GACCAAUCUGCCCUCAGAGCUCGAGAACAUCUUCGGAUGCAGAGGAGGCAGGCUUCGGUGGCGCGAUAGCGCCAACGUCCUCAACCUCCAAUGCAUCCCACCACAUGAUGAUGCCUGAAGAGCCUUGGUUUUUUG

Variants of: B1
Test: polymerase ribozyme fitness, log enrichment relative to wild type (log ratio); higher = more active; in vitro selection for triplet polymerase activity
Outline: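 A single round of triplicate in vitro selection, including frozen incubation at −7 °C, was applied to PCR-built, transcribed mutant libraries of each subunit of a heterodimeric triplet polymerase ribozyme. Illumina sequencing of input and output libraries retained genotypes with ≥10 input reads and ≥1 read per output. Fitness is the base-2 logarithm of genotype enrichment divided by wild-type enrichment, from inverse-variance-weighted replicate averages.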

Going from GACCAAUCUGCCCUCAGAGCUCGAGAACAUCUUCGGAUGCAGAGGAGGCAGGCAUCGGUGGCUCGAUAGCGCCAACGUCCUCAACCUCCAAUGCAUCCUACCACAUGAUGAUGCCUUAAGAGCCUUGGUUUUUUG to GACCAAUCUGCCCUCAGAGCUCGAGAACAUCUUCGGAUGCAGAGGAGGCAGGCCUCUGUGGCGCGAUAGCGCCAACGUCCUCAACCUCCAAUGCAUCCCACCACAUGAUGAUGCGUGAAGAGCCUUGGUUUUUUG, the “polymerase ribozyme fitness (log ratio)” value rises from -5.72 to -1.53.

Going from GACCAAUCUGCCCUCAGAGCUCGAGAACAUCUUCGGAUGCAGAGGAGGCAGGCAUCGGUGGCGCGAUAGCUCCAACGUCCUCAACCUCCAAUGCAUCCCACCACAUGAUGAUGCCUGAAGAGCCUUGGUUUUUUG to GACCAAUCUGCCCUCAGAGCUCGAGAACAUCUUCGGAUGCAGAGGAGGCAGGCAUCGGUGGCGCGAUAGCUCCAACGUUCUCAACCUCCAAUAUAUCCCACCACAUGAUGAUGCCUGAAGAGCCUUGGUUUUUUG, the “polymerase ribozyme fitness (log ratio)” value falls from -0.0584 to -2.4.

Compared with GACCAAUCUGCCCUCAGAGCUCGAGAACAUCUUCGGAUGCAGAGGAGGCAGGCAUCGGUGGCGCGAUAGCGCCAACGUCCUCAACCACCAAUGCAUCCCACCACAUGAUGAUGCCUGAAGAGCCUUGGUUUUUUG, GACCAAUCUGCCCUCAGAGCUCGAGAACAUCUUCGGAUGCAGAGGAGGCAGGCAUCGGAGGCGCGAUAGCGCCAACGUCAUGAACCUCCAAUGCAUCCCACCACAUGAUGAUGCCUGAAGAGUCUUGGUUUUUUG is lower in “polymerase ribozyme fitness (log ratio)” value: -2.57 for the first, -2.88 for the second.

Going from GACCAAUCUGCCCUCAGAGCUCGAGAACAUCUUCGGAUGCAGAGGAGGCAGGCAUCGGUGGCGCGAUAGCCCCAACGUCCUCCACCUCCAAUGCAUCCCACCACAUGAUGAUGCCUGAAUAGCCUUGGUUUUUUG to GACCAAUCUGCCCUCAGAGCUCGAGAACAUCUUCGGAUGCAGAGGAGGCAGGCAUCGGUAGCGCGAUAGCGCCAACGCCCUCAACCUCUAAUGCAUCCCACCACAUGAUGAUGCCUGAAAAGCCUAGGUUUUUUG, the “polymerase ribozyme fitness (log ratio)” value falls from -0.105 to -1.78.

Compared with GACCAAUCUGCCCUCAGAGCUCGAGAACAUCUUCGGAUGCAGAGGAGGCAGGCCUCGGUGGCGCGAUAGCGCCAACGUCCUUCACCUCCAAUGCAUCCCACCACAUGAUGAUGCGUAAAGAGCCUUGGCUUUUUG, GACCAAUCUGCCCUCAGAGCUCGAGAACAUCUUCGGAUGCAGAGGAGGCAGGCAUCGGUGGCGCGAUAGCGCCAACGUCCUCAACCUCCAAUGCAUCCCACCACAUGAUAAUGCCUGAAGAGCCUUGGUUUUUUG is higher in “polymerase ribozyme fitness (log ratio)” value: -4.19 for the first, -1.52 for the second.

Going from GACCAAUCUGCCCUCAGAGCUCGAGAACAUCUUCGGAUGCAGAGGAGGCAGGCAUCGGACGCGCGAUAGCGCCAACGUCCUCAACCUCCAAUGCAUCCCACCACAAGAUGAUGCCUGAAGAGCAUUGUUUUUUUG to GACCAAUCUGCCCUCAGAGCUCGAGAACAUCUUCGGAUGCAGAGGAGGCAGGCAUCGGUGUCGCGAUAGCGCCAACGUCCUCAACCUCCAAUGCACCCAACCACAUGAUGAUGCCUGAAGAGCCUUGGUUUUUUG, the “polymerase ribozyme fitness (log ratio)” value falls from -0.601 to -5.82.

Going from GACCAAUCUGCCCUCAGAGCUCGAGAACAUCUUCGGAUGCAGAGGAGGCAGGCAUCGGUGGCGCGAUAGCGCCAACGUCCUCAACCGCCAAUGCAUCCCACCACAUGAUGAUGCCUGAAGAGACUUGGUUUUUUG to GACCAAUCUGCCCUCAGAGCUCGAGAACAUCUUCGGAUGCAGAGGAGGCAGGCCUCGGUGGCGCGAUAGCGCCAGCGUACUCAACCUCCAAUGCAUCCCACCACAUGAUGAUGCCUGAAGAGCCUUGGUUUUUUG, the “polymerase ribozyme fitness (log ratio)” value falls from 0.724 to -0.763.

Going from GACCAAUCUGCCCUCAGAGCUCGAGAACAUCUUCGGAUGCAGAGGAGGCAGGCAUCGGUGGCGCGAUAGCGCCAACGUCCUCAACCUCCAAUGCAUCCCACCACAUGAUGAUGCCUGAAAAGCCUUGGUUUUUUG to GACCAAUCUGCCCUCAGAGCUCGAGAACAUCUUCGGAUGCAGAGGAGGCAGGCCUCGGUGGCGCGAUAGCGCCAACGUCCUCAGCCUCCAAUGCAUCCCACCACAUGAUGAUGCCGGAAGAGCCUUGGUUUUUUG, the “polymerase ribozyme fitness (log ratio)” value falls from 0.0705 to -2.35.

Going from GACCAAUCUGCCCUCAGAGCUCGAGAACAUCUUCGGAUGCAGAGGAGGCAGGCAUCGGUGACGCGAUAGCGCCAACGUCCUCAACCUCCAAUGCAUCCCACCACAAGAUGAUGCCUGAAGAGCUUUGGGUUUUUG to GACCAAUCUGCCCUCAGAGCUCGAGAACAUCUUCGGAUGCAGAGGAGGCAGGCAUCGGUGGCUCGAUAGCGCCAACGUCCUCAACCUCCAAUGCAUCCCACCACAUGAUGAUGCCUGAAGAGCCUUGGUUUUUUG, the “polymerase ribozyme fitness (log ratio)” value falls from -0.685 to -0.939.

Going from GACCAAUCUGCCCUCAGAGCUCGAGAACAUCUUCGGAUGCAGAGGAGGCAGGCCUCGGUGGCGCGAUAGCGCCAACGUCCUCAACCUCCAAUGCAUACCACCACAUGAUGAUGCCUGAAGAGCCUUGGUUUUUUG to GACCAAUCUGCCCUCAGAGCUCGAGAACAUCUUCGGAUGCAGAGGAGGCAGGCCUCGGUGGCGCGAUAGAGCCAACGUCCUAAACCUCCAAUGCAUCCCACCACAUGAUGAUGCCUGAAGAGCCUUGUUUUUUUG, the “polymerase ribozyme fitness (log ratio)” value rises from -5.83 to -5.17.

With GACCAAUCUGCCCUCAGAGCUCGAGAACAUCUUCGGAUGCAGAGGAGGCAGGCAUCGGUGGCGCGAUAGCGCCAACGUCCUCAACCUCCAAUGCAUCCCACCAUAUGAUGAUGGUUGAAGAGCCUUGGUUUUUUG the “polymerase ribozyme fitness (log ratio)” value was -5.34.
